Source: publication PMC5871853, “First insights of peptidoglycan amidation in Gram-positive bacteria - the high-resolution crystal structure of Staphylococcus aureus glutamine amidotransferase GatD” (Scientific Reports, 2018)

T1: S. aureus GatD (Staphylococcus aureus, UniProt A0A0H2WZ38)
T1 construct: full-length, 243 residues; pOPINF vector, E. coli Lemo21(DE3), IMAC and SEC; crystallised without MurT; dimer in crystal non-physiological
T1 sequence (A0A0H2WZ38 1-243): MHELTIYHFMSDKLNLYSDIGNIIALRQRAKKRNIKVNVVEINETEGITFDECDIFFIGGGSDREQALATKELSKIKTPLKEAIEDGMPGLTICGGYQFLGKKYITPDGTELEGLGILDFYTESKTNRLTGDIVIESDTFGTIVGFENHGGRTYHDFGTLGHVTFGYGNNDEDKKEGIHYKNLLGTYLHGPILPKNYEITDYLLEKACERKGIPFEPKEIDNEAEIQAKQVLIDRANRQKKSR

T2: S. aureus GatD C94A (from pET28a-murT-gatD-His6C94A) (Staphylococcus aureus strain COL, UniProt A0A0H2WZ38 1-243, C94A)
T2 sequence: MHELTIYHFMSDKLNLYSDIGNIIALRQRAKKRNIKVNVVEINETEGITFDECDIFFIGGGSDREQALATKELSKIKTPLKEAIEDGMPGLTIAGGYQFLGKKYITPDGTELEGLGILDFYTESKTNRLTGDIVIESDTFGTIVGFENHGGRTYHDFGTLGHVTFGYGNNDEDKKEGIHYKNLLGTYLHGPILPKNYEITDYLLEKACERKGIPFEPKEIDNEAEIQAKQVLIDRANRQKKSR

T3: S. aureus GatD H189A (from pET28a-murT-gatD-His6H189A) (Staphylococcus aureus strain COL, UniProt A0A0H2WZ38 1-243, H189A)
T3 sequence: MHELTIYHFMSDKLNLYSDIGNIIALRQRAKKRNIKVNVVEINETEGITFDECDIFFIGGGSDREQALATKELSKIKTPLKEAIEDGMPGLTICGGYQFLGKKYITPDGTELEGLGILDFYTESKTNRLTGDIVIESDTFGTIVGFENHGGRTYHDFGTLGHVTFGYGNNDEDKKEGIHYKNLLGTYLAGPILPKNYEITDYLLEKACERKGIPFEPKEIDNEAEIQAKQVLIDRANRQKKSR

T4: S. aureus GatD R128A (from pET28a-murT-gatD-His6R128A) (Staphylococcus aureus strain COL, UniProt A0A0H2WZ38 1-243, R128A)
T4 sequence: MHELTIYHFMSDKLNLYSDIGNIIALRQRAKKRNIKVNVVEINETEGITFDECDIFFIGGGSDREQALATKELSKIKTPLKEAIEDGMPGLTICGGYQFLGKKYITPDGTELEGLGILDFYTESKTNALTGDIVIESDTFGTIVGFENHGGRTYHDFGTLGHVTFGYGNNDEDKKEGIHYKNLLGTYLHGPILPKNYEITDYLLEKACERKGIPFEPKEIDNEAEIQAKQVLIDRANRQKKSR

T5: S. aureus GatD wt (from pET28a-murT-gatD-His6) (Staphylococcus aureus strain COL, UniProt A0A0H2WZ38 1-243)
T5 construct: GatD, glutamine amidotransferase, Staphylococcus aureus strain COL, 243 amino acids; coding region amplified with murT as the murT-gatD operon; also called glutamine amidotransferase GatD
T5 sequence (looked up): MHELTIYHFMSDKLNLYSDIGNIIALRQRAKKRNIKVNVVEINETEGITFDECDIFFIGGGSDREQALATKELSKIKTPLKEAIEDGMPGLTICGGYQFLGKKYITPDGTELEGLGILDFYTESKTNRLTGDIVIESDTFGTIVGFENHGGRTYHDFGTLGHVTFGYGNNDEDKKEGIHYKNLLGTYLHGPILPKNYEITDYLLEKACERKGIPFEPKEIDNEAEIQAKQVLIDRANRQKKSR

B1: S. aureus MurT (enzyme, Staphylococcus aureus strain COL, UniProt A0A0H2WZQ7 1-437, looked up)
chain: MRQWTAIHLAKLARKASRAVGKRGTDLPGQIARKVDTDILRKLAEQVDDIVFISGTNGKTTTSNLIGHTLKANNIQIIHNNEGANMAAGITSAFIMQSTPKTKIAVIEIDEGSIPRVLKEVTPSMMVFTNFFRDQMDRFGEIDIMVNNIAETISNKGIKLLLNADDPFVSRLKIASDTIVYYGMKAHAHEFEQSTMNESRYCPNCGRLLQYDYIHYNQIGHYHCQCGFKREQAKYEISSFDVAPFLYLNINDEKYDMKIAGDFNAYNALAAYTVLRELGLNEQTIKNGFETYTSDNGRMQYFKKERKEAMINLAKNPAGMNASLSVGEQLEGEKVYVISLNDNAADGRDTSWIYDADFEKLSKQQIEAIIVTGTRAEELQLRLKLAEVEVPIIVERDIYKATAKTMDYKGFTVAIPNYTSLAPMLEQLNRSFEGGQS
notes: MurT, Mur ligase family member of the MurT-GatD complex, Staphylococcus aureus strain COL; coding region amplified with gatD as the murT-gatD operon

What was measured:
[1] = target: T1, S. aureus GatD; assay: X-ray crystal structure, […] Å; assay type: binding; conditions: co-purified glutamine; bound at surface of chain A to R128, outside the active site; MurT absent
[2] = target: S. aureus MurT-GatD complex (Staphylococcus aureus, UniProt A0A0H2WZ38); conditions: 875 µM Gln, 35 µM complex, no lipid II; 50 mM Tris-d11, 500 mM NaCl, 10 mM MgCl2, pH meter reading 7.9 in D2O, 293 K
[3] = target: T2, S. aureus GatD C94A (from …); assay: co-purification (IMAC + SEC, SDS-PAGE); conditions: partners not purified
[4] = target: T3, S. aureus GatD H189A (from …); assay: co-purification (IMAC + SEC, SDS-PAGE); conditions: partners not purified
[5] = target: T4, S. aureus GatD R128A (from …); assay: co-purification (IMAC + SEC, SDS-PAGE); conditions: partners not purified
[6] = target: T5, S. aureus GatD wt (from …); assay: co-purification (IMAC + SEC, SDS-PAGE); MurT and GatD-His6 co-expressed in E. coli from one plasmid; HisTrap then Superdex 200 in 100 mM Tris-HCl pH 8.2, 500 mM NaCl, 10 mM MgCl2, 5 mM 2-mercaptoethanol; molar ratio read from a 12% SDS-PAGE gel of the final samples; conditions: partners not purified

| Molecule | X-ray crystal structure, 1.85 Å [1] | 1H-NMR glutaminase assay (Gln to Glu) [2] | stoichiometry N [3] | stoichiometry N [4] | stoichiometry N [5] | stoichiometry N [6] |
| --- | --- | --- | --- | --- | --- | --- |
| NC(=O)CC[C@H](N)C(=O)O [glutamine] | S. aureus GatD crystallized in the presence of its substrate, glutamine | MurT-GatD wt can convert glutamine into glutamate with a first order rate constant |  |  |  |  |
| B1 |  |  | 1 MurT:GatD molar ratio | 1 MurT:GatD molar ratio | 1 MurT:GatD molar ratio | 1 MurT:GatD molar ratio |
